According to the supplement of paper PMC10724198:

How the values were obtained:
Saccharomyces cerevisiae [1] = experiment: protein stability index of tFT-peptide fusion in wild type (PSI (0-1 scale)); higher = more stable (slower turnover); conditions: genetic background: wild type
Saccharomyces cerevisiae [2] = experiment: protein stability index of tFT-peptide fusion in deletion strain of DOA10 (PSI (0-1 scale)); higher = more stable (slower turnover)
Procedure: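 MPS profiling in S. cerevisiae of two library types built from selected 12-aa C-degron peptides (IN1, IN2, LN1, LN3, VN2, R1-R5, W1-W3, Atg1 and Rpa12 C-termini): saturation mutagenesis libraries and C-terminal +1 capping libraries (13 aa). Each peptide is fused to the C-terminus of a sfGFP-mCherry timer, after a GGGS linker. Cells are FACS-sorted into 8 mCherry/sfGFP bins and sequenced. PSI runs from 0 (unstable) to 1 (stable), measured once in wild type and in the das1Δ or doa10Δ background.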
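Throughout, for protein stability index of tFT-peptide fusion in deletion strain of DOA10: PSI per variant is the weighted mean of its sequencing read distribution over the sorted stability bins, counting only variants with over 10 reads summed across bins.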
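Throughout, for protein stability index of tFT-peptide fusion in wild type: PSI derived as read-weighted mean over the 8 sorting bins, only variants exceeding 10 total reads kept, mCherry placed adjacent to the peptide and sfGFP distal.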

AITLPMCMLLLR
protein stability index (Saccharomyces cerevisiae [1]): 0.133
protein stability index (Saccharomyces cerevisiae [2]): 0.651

CLVWLPILLFFR
protein stability index (Saccharomyces cerevisiae [1]): 0.0521
protein stability index (Saccharomyces cerevisiae [2]): 0.359

RFLRVLLPLYFR
protein stability index (Saccharomyces cerevisiae [1]): 0.381
protein stability index (Saccharomyces cerevisiae [2]): 0.666

CLVSLPILLEFR
protein stability index (Saccharomyces cerevisiae [1]): 0.518
protein stability index (Saccharomyces cerevisiae [2]): 0.638

AITLPMCPWLLR
protein stability index (Saccharomyces cerevisiae [1]): 0.652
protein stability index (Saccharomyces cerevisiae [2]): 0.667

GLYACSVGCWFR
protein stability index (Saccharomyces cerevisiae [1]): 0.386
protein stability index (Saccharomyces cerevisiae [2]): 0.678

CSVSLPILLFFR
protein stability index (Saccharomyces cerevisiae [1]): 0.0485
protein stability index (Saccharomyces cerevisiae [2]): 0.617

GLYMYSVGCWFR
protein stability index (Saccharomyces cerevisiae [1]): 0.238
protein stability index (Saccharomyces cerevisiae [2]): 0.605

AITLPMCPLLLRP
protein stability index (Saccharomyces cerevisiae [1]): 0.281
protein stability index (Saccharomyces cerevisiae [2]): 0.636

AITLPMPPLLLR
protein stability index (Saccharomyces cerevisiae [1]): 0.257
protein stability index (Saccharomyces cerevisiae [2]): 0.682

AITLLMCPLLLR
protein stability index (Saccharomyces cerevisiae [1]): 0.37
protein stability index (Saccharomyces cerevisiae [2]): 0.629

GLYMCSVGCGFR
protein stability index (Saccharomyces cerevisiae [1]): 0.628
protein stability index (Saccharomyces cerevisiae [2]): 0.655

RSQRVLLPLYFR
protein stability index (Saccharomyces cerevisiae [1]): 0.308
protein stability index (Saccharomyces cerevisiae [2]): 0.705

HSLRVLLPLYFR
protein stability index (Saccharomyces cerevisiae [1]): 0.309
protein stability index (Saccharomyces cerevisiae [2]): 0.669

RVTRLDAIYFRIR
protein stability index (Saccharomyces cerevisiae [1]): 0.589
protein stability index (Saccharomyces cerevisiae [2]): 0.717

RVVRLDAIYFRI
protein stability index (Saccharomyces cerevisiae [1]): 0.399
protein stability index (Saccharomyces cerevisiae [2]): 0.65

RSLRKLLPLYFR
protein stability index (Saccharomyces cerevisiae [1]): 0.474
protein stability index (Saccharomyces cerevisiae [2]): 0.67

RVTRLDAIYFRV
protein stability index (Saccharomyces cerevisiae [1]): 0.342
protein stability index (Saccharomyces cerevisiae [2]): 0.63

AITLPMCPLLLG
protein stability index (Saccharomyces cerevisiae [1]): 0.509
protein stability index (Saccharomyces cerevisiae [2]): 0.544

LLYMCSVGCWFR
protein stability index (Saccharomyces cerevisiae [1]): 0.348
protein stability index (Saccharomyces cerevisiae [2]): 0.571

GLYMCSVWCWFR
protein stability index (Saccharomyces cerevisiae [1]): 0.305
protein stability index (Saccharomyces cerevisiae [2]): 0.399

CLVSLPILLFFI
protein stability index (Saccharomyces cerevisiae [1]): 0.197
protein stability index (Saccharomyces cerevisiae [2]): 0.436

CLVSLIILLFFR
protein stability index (Saccharomyces cerevisiae [1]): 0.298
protein stability index (Saccharomyces cerevisiae [2]): 0.363

RVTRLDANYFRI
protein stability index (Saccharomyces cerevisiae [1]): 0.689
protein stability index (Saccharomyces cerevisiae [2]): 0.716

CLVSTPILLFFR
protein stability index (Saccharomyces cerevisiae [1]): 0.132
protein stability index (Saccharomyces cerevisiae [2]): 0.623

AITLPMCPLSLR
protein stability index (Saccharomyces cerevisiae [1]): 0.596
protein stability index (Saccharomyces cerevisiae [2]): 0.665

RSERVLLPLYFR
protein stability index (Saccharomyces cerevisiae [1]): 0.365
protein stability index (Saccharomyces cerevisiae [2]): 0.674

GIYMCSVGCWFR
protein stability index (Saccharomyces cerevisiae [1]): 0.256
protein stability index (Saccharomyces cerevisiae [2]): 0.611

CLVSLPILLFFH
protein stability index (Saccharomyces cerevisiae [1]): 0.204
protein stability index (Saccharomyces cerevisiae [2]): 0.474

RVTRLDAIYFTI
protein stability index (Saccharomyces cerevisiae [1]): 0.548
protein stability index (Saccharomyces cerevisiae [2]): 0.64

LSLRVLLPLYFR
protein stability index (Saccharomyces cerevisiae [1]): 0.311
protein stability index (Saccharomyces cerevisiae [2]): 0.616

CLVSLPILLFFRY
protein stability index (Saccharomyces cerevisiae [1]): 0.0612
protein stability index (Saccharomyces cerevisiae [2]): 0.483

RVTRLDAIYKRI
protein stability index (Saccharomyces cerevisiae [1]): 0.667
protein stability index (Saccharomyces cerevisiae [2]): 0.698
